Test [1] addresses T1, human BMP9 (BMP9/Growth Differentiation Factor 2 [Homo sapiens], NP_057288) (human, UniProt Q9UK05 320-429, limits assumed).
T1 construct: cell assays use 'recombinant human BMP9 complex'; also called huBMP9; hBMP9
T1 sequence: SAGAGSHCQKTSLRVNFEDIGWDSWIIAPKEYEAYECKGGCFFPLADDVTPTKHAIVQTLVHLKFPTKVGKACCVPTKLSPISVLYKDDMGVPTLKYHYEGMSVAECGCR
The experiment in a line: blocking ELISA; competitor Type II BMP receptor (ActRIIB, BMPRII). The procedure: (§1) Blocking ELISA was used to identify positive clones that can inhibit the interactions between BMP9 and its receptors. Four different recombinant BMP9 receptors can be used: human Alk1-Fc (R&D system, 370-AL-100); human BMPRII-Fc (R&D system, 811-BR-100); human ActRIIA-Fc (R&D system, 340-R2-100); human ActRIIB-Fc (R&D system).
(§2) The blocking activity of antibody sample to specific ligand/receptor combination was measured by ELISA. In brief, 50 ul of receptor at a concentration of 1 ug/ml in coating buffer (PBS) was added into 96 well ELISA plates at 4° C. overnight, followed by washing with PBST one time. ELISA plates were blocked with 200 ul blocking buffer (PBST containing 1% BSA) in each well and then incubated at room temperature (RT) for 1 hour, followed by washing with PBST for 3 times. Diluted antibody sample was mixed with biotinylated human BMP9 (bio-hBMP9 of 1 ug/ml) and incubated at RT for 45 minutes. The mixture of antibody and bio-hBMP9 was added to the plates of 50 ul/well and then incubated at RT for 30 minutes, followed by washing with PBST for 3 times. 50 ul Poly-HRP Streptavidin (Thermofisher, 21140) was added to each well of the plates and incubated at RT for 30 minutes, followed by washing with PBST for 5 times. Finally, 50 ul of TMB reagent (Invitrogen 002023) and 50 ul of 1N HCl (Invitrogen SS01100) were added to each well to stop the reaction. Absorbance of each well was read at 450 nm to get readout OD₄₅₀.
A general note: In an ELISA, binding on a coated surface is turned into a signal by an enzyme label.

In a further test the target is T2, cyno BMP9 (cyno, UniProt G7PEU8 320-429).
T2 sequence: T1 sequence with A2T, D23N, V84I
The experiment in a line: MSD-SET solution equilibrium titration. The procedure: (§3) The amount of free Fab binding sites was determined by transferring the mixtures on antigen-coated plates and a brief incubation. The free Fab was consequently bound to the plate and detected with a detection antibody after a washing step for removing Fab-antigen complexes. The resulting signal was plotted versus the antigen concentration; and the KD was accurately determined by non-linear curve fitting.
(§4) A 22 serial 2ⁿ dilution of the antigens (human BMP9 (GD-43-KS00); cyno BMP9, rat BMP9 (R&D Systems 5566-BP) or mouse BMP9 (iPROT101715)) was prepared in incubation buffer (PBS (Teknova Cat#P0195) containing 0.5% BSA (Sigma Cat#A7906-500G) and 0.02% Tween-20 (VWR Cat#437082Q)). A constant concentration of the Fab was added. A volume of 60 ul of each antigen:Fab mix was distributed in duplicates to a 384-well polypropylene microtiter plate (PP MTP, Greiner Cat#781280). Incubation buffer served as negative control and a sample containing no antigen served as positive control (Bₘₐₓ). The plate was sealed and incubated overnight (O/N) at room temperature (RT).
(§5) A 384-well standard MSD array plate (Meso Scale Discovery Cat#L21XA) was coated with 30 ul/well human BMP9 diluted in PBS as capture agent and incubated O/N at 4° C. After washing for 3 times with 70 ul/well washing buffer (TBS (Teknova Cat#T1680) with 0.05% Tween-20), the plate was blocked with 50 ul/well blocking buffer (PBS with 5% BSA) for 1 hour at RT. After washing, a volume of 30 ul/well of the antigen:Fab mix was transferred from the PP MTP to the coated MSD plate and incubated for 20 min at RT. After an additional wash step, 30 ul of detection antibody (Goat anti-human Fab specific (Jackson Immuno Research Cat#109-005-097) conjugated with MSD SULFO-TAG NHS Ester (Meso Scale Discovery Cat#R91AN-1)) diluted 1:1000 in incubation buffer was added to each well and incubated for 30 min at RT. The MSD plate was washed and 35 ul/well of read buffer (MSD Read Buffer T 4×, Meso Scale Discovery Cat#R92TC-1) was added and then incubated for 5 min at RT. ECL signals were measured with the MSD SECTOR Imager 6000. The data was evaluated with XLfit (IDBS) software following a 1:1 fit model for Fab (according to Piehler et al., 1997).

For another test, the target named is T3, mouse BMP9 (mouse, UniProt Q9WV56 319-428, limits assumed).
T3 construct: also called murine BMP9; mouse BMP9 (iPROT101715)
T3 sequence (looked up): T1 sequence with A2T, G5S, E33D, V84I
The experiment in a line: MSD-SET solution equilibrium titration. The method, then:
as §3, §4, §5

In the next test the target is T4, rat BMP9 (rat, UniProt M0RB87 320-430, The mature growth factor is a disulfide-linked homodimer. One copy of the polypeptide is given.).
T4 construct: also called rat BMP9 (R&D Systems 5566-BP); rat BMP9 condition medium
T4 sequence: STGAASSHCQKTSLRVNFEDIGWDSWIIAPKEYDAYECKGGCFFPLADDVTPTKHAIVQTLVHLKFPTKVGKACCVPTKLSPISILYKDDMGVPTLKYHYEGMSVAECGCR
The experiment in a line: MSD-SET solution equilibrium titration. The procedure:
as §3, §4, §5

Test [2] has as its target T1, human BMP9 (BMP9/Growth Differentiation …). The experiment in a line: MSD-SET solution equilibrium titration. The method, then:
as §3, §4, §5

The target is the same in test [3]. The experiment in a line: cell-based or functional assay.
For test [4], the target named is T5, human BMP10 (Bone Morphogenetic Protein 10 Preproprotein [Homo sapiens], NP_055297) (human, UniProt O95393 317-424).
T5 construct: Bought recombinant protein; also called huBMP10; rhBMP10 (R&D Cat#2926-BP-025)
T5 sequence: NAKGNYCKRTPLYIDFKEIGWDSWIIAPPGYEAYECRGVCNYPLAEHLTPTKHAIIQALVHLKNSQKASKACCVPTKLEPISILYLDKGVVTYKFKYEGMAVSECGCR
The experiment in a line: Table 7 (caption: MSD-SET; Example 6 describes Biacore SPR on immobilised rhBMP10, Fab 31.25-1000 nM). In general terms: In SPR one partner is held on a chip, and binding of the other changes the refractive index at the surface.

In test [5] the target is T1, human BMP9 (BMP9/Growth Differentiation …). Briefly: blocking ELISA; competitor Type I BMP receptor (AlkI). The procedure: as §1, §2
For test [6], the target named is T5, human BMP10 (Bone Morphogenetic Protein …). The experiment in a line: Table 5 (caption: MSD-SET; Example 6 describes Biacore SPR on immobilised rhBMP10, Fab 31.25-1000 nM).
For a further test, the target named is T6, human BMP2 (human, UniProt P12643 283-396).
T6 construct: Bought recombinant protein; also called huBMP2; rhBMP2 (R&D Cat#355-BM-010)
T6 sequence (P12643 283-396 limits assumed): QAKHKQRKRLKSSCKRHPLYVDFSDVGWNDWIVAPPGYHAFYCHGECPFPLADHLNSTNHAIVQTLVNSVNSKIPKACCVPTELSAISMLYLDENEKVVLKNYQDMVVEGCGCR
Briefly: table caption: MSD-SET; Example 6 describes Biacore SPR for BMP2, BMP7, BMP10.

The target in another test is T7, human BMP7 (human, UniProt P18075 293-431).
T7 construct: Bought recombinant protein; also called huBMP7; rhBMP7 (R&D Cat#354-BP-010)
T7 sequence (looked up): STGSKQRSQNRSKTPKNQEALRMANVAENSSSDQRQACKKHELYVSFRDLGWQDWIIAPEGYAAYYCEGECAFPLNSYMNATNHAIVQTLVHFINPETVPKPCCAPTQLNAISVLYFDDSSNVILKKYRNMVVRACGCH
The test is described as above.

Test [7] deals with T1, human BMP9 (BMP9/Growth Differentiation …). Briefly: cell-based or functional assay. This is another data set of the same source.

Residue numbers refer to the chain shown, from its start. Read-outs that look alike come from different tables or passages of the source.

B1: Antibody BMP9-3: MOR023795 (antibody, human IgG1, lambda, V domains shown)
VH: EVQLVQSGAEVKKPGESLKISCKGSGYSFTTYWIGWVRQMPGKGLEWMGIIYPEGSYTTYSPSFQGQVTISADKSISTAYLQWSSLKASDTAMYYCARGKRVDASSFDYWGQGTLVTVSS
VL: QSVLTQPPSVSGAPGQRVTISCSGSSSNIGDNYVSWYQQLPGTAPKLLIYRNNKRPSGVPDRFSGSKSGTSASLAITGLQAEDEADYYCSSTDKEHLVFGGGTKLTVLG
notes: Fully human, phage display
Broadly, the IC50 is the midpoint of a concentration-inhibition curve. As a reminder, the Kd is the equilibrium constant for the complex coming apart. A lower Kd goes with a tighter complex. Consider B1, for which, in test [1], the half-maximal inhibitory concentration (IC50) is not above 1 nM. The Kd was 0.262 nM with cyno BMP9, 0.059 nM in the test with mouse BMP9, 0.069 nM in the test with rat BMP9 and 0.288 nM in test [2]. The “RGA IC50 [pM] (HEK293T BRE-Luc reporter gene assay)” value (“RGA IC50 [pM]” below) in test [3] amounted to 167 pM. Besides, in test [4], the binding result is “no binding”.

B2: Antibody BMP9-8: MOR023793 (antibody, human IgG1, kappa, V domains shown)
VH: QVQLVQSGAEVKKPGASVKVSCKASGYTFTSYYMNWVRQAPGQGLEWMGWINPVQGNTNYAQKFQGRVTMTRDTSISTAYMELSRLRSEDTAVYYCARNYFDVWGQGTLVTVSS
VL: DIQMTQSPSSLSASVGDRVTITCRASQTISNFLAWYQQKPGKAPKLLIYAASNLQSGVPSRFSGSGSGTDFTLTISSLQPEDFAVYYCQQLYAESITFGQGTKVEIKR
notes: Fully human, phage display
As for B2, in [1], the half-inhibitory concentration (IC50) was not above 1 nM. Also, the figures for the Kd (with cyno BMP9; with mouse BMP9; in [2]) were 0.24 nM, 0.44 nM and 0.12 nM, respectively. The “RGA IC50 [pM]” value in [3] is 113 pM. Further, the binding result in test [4] is recorded as “no binding”.

B3: Antibody BMP9-9: MOR023796 (antibody, human IgG1, lambda, V domains shown)
VH: QVQLVQSGAEVKKPGSSVKVSCKASGGTFSDYAIHWVRQAPGQGLEWMGGIIPFFGTAYYAQKFQGRVTITADESTSTAYMELSSLRSEDTAVYYCARRIVSDSVAVQYRHAFDPWGQGTLVTVSS
VL: QSVLTQPPSVSGAPGQRVTISCSGSSSNIGSNYVYWYQQLPGTAPKLLIYGNNNRPSGVPDRFSGSKSGTSASLAITGLQAEDEADYYCNAWDTKAYVWVFGGGTKLTVLG
notes: Fully human, phage display
Consider B3, for which, in test [1], the IC50 is not above 1 nM. For the same molecule, the Kd with cyno BMP9 stood at 0.13 nM; in the test with mouse BMP9, 0.42 nM; in test [2], 0.44 nM. The “RGA IC50 [pM]” value in test [3] was 130 pM. The binding result in test [4] is “no binding”.

B4: Antibody BMP9-7: MOR023787 (antibody, human IgG1, lambda, V domains shown)
VH: QVQLVESGGGLVKPGGSLRLSCAASGFTFSSAWMSWVRQAPGKGLEWVGHIKSKTYGGTIDYAAPVKGRFTISRDDSKNTLYLQMNSLKTEDTAVYYCARVGGYYGYGYAFAYWGQGTLVTVSS
VL: SYELTQPLSVSVALGQTARITCSGDNIGDKYVSWYQQKPGQAPVLVIYDDNKRPSGIPERFSGSNSGNTATLTISRAQAGDEADYYCSSTASKSFNVFGGGTKLTVLG
notes: Fully human, phage display
Regarding B4, the dissociation constant Kd was 0.35 nM with cyno BMP9, 0.74 nM with mouse BMP9 and 0.2 nM in [2]. In addition, the “RGA IC50 [pM]” value in test [3] came to 118 pM. Further, in [5], the IC50 is not above 1 nM. In [4], the binding result was “no binding”.

B5: Antibody BMP9-2: MOR022962 (antibody, human IgG1, kappa, V domains shown)
VH: QVQLLESGGGLVQPGGSLRLSCAASGFTFSSYAMSWVRQAPGKGLEWVSITLGTGHTHYADSVKGRFTISRDNSKNTLYLQMNSLRAEDTAVYYCARGSYIIWSALDYWGQGTLVTVSS
VL: DIQMTQSPSSLSASVGDRVTITCRASQDIRSYLNWYQQKPGKAPKLLIYDASNLQSGVPSRFSGSGSGTDFTLTISSLQPEDFATYYCQQSDTSPLTFGQGTKVEIKR
For B5, the Kd was found to be 0.018 nM with cyno BMP9, 0.005 nM in the test with mouse BMP9, 0.006 nM with rat BMP9 and 0.012 nM in test [2]. Further, the “RGA IC50 [pM]” value in [3] was determined as 138 pM. Besides, the half-maximal inhibitory concentration (IC50) in test [5] was not above 1 nM. In test [4], the binding result was “no binding”.

B6: Antibody BMP9-5: AM1900 (antibody, human IgG1, kappa, V domains shown)
VH: QVQLVQSGAEVKKPGASVKVSCKASGYTFTRYWMHWVRQAPGQGLEWMGEINPSQGGTNYNEKFKSRVTMTVDKSISTAYMELSRLRSDDTAVYYCAIGANYGGLVYWGQGTLVTVSS
VL: EIVLTQSPATLSLSPGERATLSCRASESLDNYGISFMNWFQQKPGQAPRFLIYAASNQGSGIPARFSGSGSGTDFTLTISSLQPEDTAVYFCQQSKEVPRTFGGGTKVEIKR
B6: in [6], the binding result is reported as “no binding”. The IC50 in [1] is not above 1 nM. Also, the dissociation constant (Kd) with rat BMP9 was found to be 0.046 nM; in test [2], 0.054 nM; in the test with human BMP2 it was 999 nM; in the test with human BMP7, 108 nM. Also, the “RGA IC50 [pM]” value in [7] was found to be 100 pM.

These data come from patent publication US20160355583A1 (Novartis, published 2016).
